Results published in the supplement of paper PMC11246515.
± gives the standard deviation of the averaged measurements.

Experiment: total protein half-life in vivo (active degradation + dilution); higher = more stable protein
[1] = E. coli NCM3722 delta-clpP delta-lon delta-hslV, growth: N-lim chemostat, doubling time 6 h
[2] = E. coli NCM3722 delta-clpP, growth: N-lim chemostat, doubling time 6 h
[3] = E. coli NCM3722 delta-hslV, growth: N-lim chemostat, doubling time 6 h
[4] = E. coli NCM3722 delta-lon, growth: N-lim chemostat, doubling time 6 h
[5] = E. coli NCM3722 delta-smpB, growth: N-lim chemostat, doubling time 6 h
[6] = wild type E. coli NCM3722, growth: C-lim chemostat, doubling time 3 h
[7] = wild type E. coli NCM3722, growth: C-lim chemostat, doubling time 6 h
[8] = wild type E. coli NCM3722, growth: C-lim chemostat, doubling time 12 h
[9] = wild type E. coli NCM3722, growth: N-lim chemostat, doubling time 6 h
[10] = wild type E. coli NCM3722, growth: N-lim chemostat, doubling time 12 h
[11] = wild type E. coli NCM3722, growth: P-lim chemostat, doubling time 6 h
[12] = wild type E. coli NCM3722, growth: P-lim chemostat, doubling time 12 h

Sequence | total protein half-life in vivo [1] | total protein half-life in vivo [2] | total protein half-life in vivo [3] | total protein half-life in vivo [4] | total protein half-life in vivo [5] | total protein half-life in vivo [6] | total protein half-life in vivo [7] | total protein half-life in vivo [8] | total protein half-life in vivo [9] | total protein half-life in vivo [10] | total protein half-life in vivo [11] | total protein half-life in vivo [12]
MLELLYTALLYLIQPLIWIRLWVRGRKAPAYRKRWGERYGFYRHPLKPGGIMLHSVSVGETLAAIPLVRALRHRYPDLPITVTTMTPTGSERVQSAFGKDVQHVYLPYDLPDALNRFLNKVDPKLVLIMETELWPNLIAALHKRKIPLVIANARLSARSAAGYAKLGKFVRRLLRRITLIAAQNEEDGARFVALGAKNNQVTVTGSLKFDISVTPQLAAKAVTLRRQWAPHRPVWIATSTHEGEESVVIAAHQALLQQFPNLLLILVPRHPERFPDAINLVRQAGLSYITRSSGEVPSTSTQVVVGDTMGELMLLYGIADLAFVGGSLVERGGHNPLEAAAHAIPVLMGPHTFNFKDICARLEQASGLITVTDATTLAKEVSSLLTDADYRSFYGRHAVEVLYQNQGALQRLLQLLEPYLPPKTH [P0AC75] | 5.95 ± 0.12 h | 6.64 ± 0.62 h | 6.5 ± 0.35 h | 6.08 ± 0.49 h | 6.219 ± 0.038 h | 3.23 ± 0.044 h | 6.2 ± 0.5 h | 10.6 ± 1.9 h | 6.524 ± 0.011 h | 13.7 ± 1.2 h | 6.317 ± 0.014 h | 11.9 ± 0.48 h
MNEQYSALRSNVSMLGKVLGETIKDALGEHILERVETIRKLSKSSRAGNDANRQELLTTLQNLSNDELLPVARAFSQFLNLANTAEQYHSISPKGEAASNPEVIARTLRKLKNQPELSEDTIKKAVESLSLELVLTAHPTEITRRTLIHKMVEVNACLKQLDNKDIADYEHNQLMRRLRQLIAQSWHTDEIRKLRPSPVDEAKWGFAVVENSLWQGVPNYLRELNEQLEENLGYKLPVEFVPVRFTSWMGGDRDGNPNVTADITRHVLLLSRWKATDLFLKDIQVLVSELSMVEATPELLALVGEEGAAEPYRYLMKNLRSRLMATQAWLEARLKGEELPKPEGLLTQNEELWEPLYACYQSLQACGMGIIANGDLLDTLRRVKCFGVPLVRIDIRQESTRHTEALGELTRYLGIGDYESWSEADKQAFLIRELNSKRPLLPRNWQPSAETREVLDTCQVIAEAPQGSIAAYVISMAKTPSDVLAVHLLLKEAGIGFAMPVAPLFETLDDLNNANDVMTQLLNIDWYRGLIQGKQMVMIGYSDSAKDAGVMAASWAQYQAQDALIKTCEKAGIELTLFHGRGGSIGRGGAPAHAALLSQPPGSLKGGLRVTEQGEMIRFKYGLPEITVSSLSLYTGAILEANLLPPPEPKESWRRIMDELSVISCDVYRGYVRENKDFVPYFRSATPEQELGKLPLGSRPAKRRPTGGVESLRAIPWIFAWTQNRLMLPAWLGAGTALQKVVEDGKQSELEAMCRDWPFFSTRLGMLEMVFAKADLWLAEYYDQRLVDKALWPLGKELRNLQEEDIKVVLAIANDSHLMADLPWIAESIQLRNIYTDPLNVLQAELLHRSRQAEKEGQEPDPRVEQALMVTIAGIAAGMRNTG | 5.93 ± 0.19 h | 5.73 ± 0.32 h | 5.54 ± 0.18 h | 5.364 ± 0.041 h | 5.04 ± 0.057 h | 2.97 ± 0.16 h | 5.78 ± 0.22 h | 10.98 ± 0.089 h | 5.22 ± 0.11 h | 10.6 ± 0.79 h | 5.97 ± 0.078 h | 11.8 ± 0.8 h
MKTLIRKFSRTAITVVLVILAFIAIFNAWVYYTESPWTRDARFSADVVAIAPDVSGLITQVNVHDNQLVKKGQILFTIDQPRYQKALEEAQADVAYYQVLAQEKRQEAGRRNRLGVQAMSREEIDQANNVLQTVLHQLAKAQATRDLAKLDLERTVIRAPADGWVTNLNVYTGEFITRGSTAVALVKQNSFYVLAYMEETKLEGVRPGYRAEITPLGSNKVLKGTVDSVAAGVTNASSTRDDKGMATIDSNLEWVRLAQRVPVRIRLDNQQENIWPAGTTATVVVTGKQDRDESQDSFFRKMAHRLREFG |  | 5.51 h |  |  |  |  |  |  |  |  |  | 
MKPSSSNSRSKGHAKARRKTREELDQEARDRKRQKKRRGHAPGSRAAGGNTTSGSKGQNAPKDPRIGSKTPIPLGVTEKVTKQHKPKSEKPMLSPQAELELLETDERLDALLERLEAGETLSAEEQSWVDAKLDRIDELMQKLGLSYDDDEEEEEDEKQEDMMRLLRGN [P0A8H6] | 5.38 ± 0.29 h | 5.18 ± 0.7 h | 4.08 ± 0.55 h | 3.93 ± 0.22 h | 4.09 ± 1.7 h | 2.52 ± 0.0028 h | 4.36 ± 0.45 h | 7.24 ± 1.8 h | 3.59 ± 0.17 h | 5.58 ± 1 h | 2.98 h | 5.38 ± 0.71 h
MLINIGRLLMLCVWGFLILNLVHPFPRPLNIFVNVALIFTVLMHGMQLALLKSTLPKDGPQMTTAEKVRIFLFGVFELLAWQKKFKVKK | 6.84 h |  | 7.72 h | 6.85 h | 6.18 h | 3.25 h |  |  | 4.21 h |  | 6.22 h | 12.6 h
MNKTEFYADLNRDFNALMAGETSFLATLANTSALLYERLTDINWAGFYLLEDDTLVLGPFQGKIACVRIPVGRGVCGTAVARNQVQRIEDVHVFDGHIACDAASNSEIVLPLVVKNQIIGVLDIDSTVFGRFTDEDEQGLRQLVAQLEKVLATTDYKKFFASVAG | 4.82 ± 0.66 h | 4.43 ± 0.32 h | 4 ± 0.26 h | 4.523 ± 0.034 h | 4.22 ± 0.21 h | 3.22 ± 0.55 h | 5.38 ± 0.12 h | 11.8 ± 3.1 h | 4.33 ± 0.57 h | 7.72 ± 0.91 h | 5.8 ± 0.83 h | 9.9 ± 0.11 h
